According to article PMC5001721, “Reconstitution of Protein Translation of Mycobacterium Reveals Functional Conservation and Divergence with the Gram-Negative Bacterium Escherichia coli” (PLoS ONE, 2016):

Target: T1, M. tuberculosis elongation factor Ts (EF-Ts) with an N-terminal 6xHis-tag and linker (M. tuberculosis, UniProt P9WNM1 1-271)
T1 sequence: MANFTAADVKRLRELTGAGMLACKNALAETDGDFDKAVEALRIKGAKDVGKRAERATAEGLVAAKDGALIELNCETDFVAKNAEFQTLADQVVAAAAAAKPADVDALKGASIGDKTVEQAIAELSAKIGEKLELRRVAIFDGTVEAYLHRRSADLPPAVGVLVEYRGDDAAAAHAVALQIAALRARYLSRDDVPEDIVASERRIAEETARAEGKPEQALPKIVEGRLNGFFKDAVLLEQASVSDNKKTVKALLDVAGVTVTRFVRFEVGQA
Assay: affinity purification with mass spectrometry
Conditions: partners not purified

B1: M. tuberculosis elongation factor Tu (EF-Tu) (natural protein)
chain: not shown
- stoichiometry N: 1
